From article PMC10720262 (Cell Reports, 2023)

Biological target: recombinant full-length PfCSP (Plasmodium falciparum circumsporozoite protein, strain NF54) (Plasmodium falciparum NF54, UniProt P19597)
Sequence (P19597 20-375): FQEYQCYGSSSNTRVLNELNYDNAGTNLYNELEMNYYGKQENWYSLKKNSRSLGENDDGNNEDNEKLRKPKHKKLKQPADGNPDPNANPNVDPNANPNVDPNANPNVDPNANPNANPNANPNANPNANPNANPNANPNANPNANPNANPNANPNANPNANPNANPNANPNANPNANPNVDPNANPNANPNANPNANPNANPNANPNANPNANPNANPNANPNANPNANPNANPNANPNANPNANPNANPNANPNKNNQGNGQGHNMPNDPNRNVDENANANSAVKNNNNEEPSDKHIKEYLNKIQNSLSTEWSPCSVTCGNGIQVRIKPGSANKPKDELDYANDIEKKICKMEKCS

Binder	binding result
CL-510427 (antibody, V domains shown) VH: QVQLVESGGGVVQPGRSLRLSCAASGFTFSNYGMHWVRQAPGKGLEWVAVIWYDGSKEDYADSVKGRLTISRDNSKNTLYLQMNSLRAEDTAVYYCARDGDSRGWYAFDYWGQGTLVTVSS VL: not shown	binds
CL-509880 (antibody, V domains shown) VH: QVQLVESGGGVVQPGRSLRLSCAASGFTFSNSGMHWVRQAPGKGLEWVAVIWYDGSNKYYADSVKGRFTVTRDNSKNTLYLQMNSLRAEDTAVYYCVRAYYGSGSYHFKYGMDVWGQGTTVTVSS VL: not shown	binds
CL-509940 (antibody, V domains shown) VH: QVQLVESGGGVVQPGRSLRLSCAASGFTFSTYGMHWVRQAPGKGLEWVAVIWYDGSIKFYADSVKGRFTISRDDSKNTLYLQMNSLRAEDTAVYYCARDGGYSDSGRFGWFDPWGQGNLVTVSS VL: EIVMTQSPVTLSVSPGERVTLSCRASQSVSSNLAWYQQKPGQAPRLLIYGASNRATGIPDRFSGSGSGTEFSLTVTSLQSEDFAVYYCQQYNQWRTFGQGTKVEIR	binds
CL-462911 (antibody, V domains shown) VH: QVHLVESGGGVVQPGRSLTLSCAASGFTFSSCGMHWVRQAPGKGLEWLAVIWYDGSNKYYADSVKGRFTISRDNSKNTLYLQMNSLRAEDTAVYYCARDGGYVRDYYYGMDVWGQGTTVTVSS VL: not shown	binds
CL-509293 (antibody, V domains shown) VH: QVQLVASGGGVVQPGRSLRLTCAASGFTFSNYGMHWVRQSPGRGLEWVAIIWYDGSNKFYADSVKGRFTISRDNSKNTLYLQMNSLRAEDTAVYYCAKAEQRTNDNYYKYGMDVWGQGTTVTVST VL: not shown	binds
CL-464097 (antibody, V domains shown) VH: QVQLVESGGGAVQPGRSLRLSCAASGFTFSYNGMHWVRQAPGKGLEWVAIIWYDGSNKYYAESVKGRFTISRDNSKDTLYLQMNSLRAEDTAIYYCVRAWNYEDKKYSMDVWGQGTTVTVSS VL: DIQMTQSPSTLSASVGDRVTITCRASQSISSWLAWYQQKPGKAPKLLIYKASSLESGVPSRFSGSGSGTDFTLTISSLQPDDFATYYCQQYNYFWTFGQGTKVEIR	binds
CL-510418 (antibody, V domains shown) VH: QVQLVESGGGVVQPGQSLRLSCEASGFTFSNYGMHWVRQAPVKGLEWVAIIWFDGSYKYYADSVKGRFTVSRDNSKNTLYLQMDSLRAEDTAVYYCARARKGQRSDYYGSETSYTFDNWGQGTLVTVSS VL: DIQMTQSPSTLSASVGDRVTITCRASQSINSWLAWYQQKPGKAPKFLIYKASILESGIPSRFSGSGSGTEFTLTISSLQPDDFATYYCQQYNSYWTFGQGTKVEIK	binds
CL-510416 (antibody, V domains shown) VH: QVQLVESGGGVVQPGRSLRLSCEASGFTFSNYGMHWVRQGPGKGLEWVALMWYDGSNKYYSDSVKGRFTISRDNSKSTLYLQMNSLRAEDTAVYYCARPITGNTHSKYTMDVWGQGTTVTVSS VL: DIQMTQSPSTLSASVGDRVTITCRASQSISSWLAWYQQKPGKAPKLLIYKASTLESGVPSRFSGSGSGTEFTLTISSLQPDDFATYFCQQYNSYWTFGQGTKVEIK	binds
CL-508758 (antibody, V domains shown) VH: QVQLVESGGGVVQPGRSLRLSCAASGFTFSNYGMHWVRQTPGRDLEWVAIIWYDGSYKFYADSVKGRFSISRDNSKNTLNLEMKSLRVEDTAVYYCAKAYDTSSDDKYGMDVWGQGTTVTVTS VL: DIQMTQSPSTLSASVGDRVTITCRASQSISIWLAWYQQKPGKAPKLLIYRASDLESGVPSRFSGSGSGTGFTLTISSLQPDDFATYYCQQYNSYWTFGQGTKVEIK	binds
CL-510020 (antibody, V domains shown) VH: QVQLVESGGGVVQPGRSLRLSCAASGFTFSSFGMYWVRQAPGKGLEWVALIWYDGSNQYYADSVKGRFTISRDNSKNTLYLQMNSLRAEDTAVYYCARAGYFYGSGSPLDYWGQGTLVTVPS VL: DIQMTQSPSTLSASVGDGVTITCRASQSISSWLAWYQQKPGKAPKLLIYMASSLESGVPSRFSGSGSGTEFTLTISSLQPDDFATYYCQQYYNYWTFGQGTKVEIK	binds
CL-509494 (antibody, V domains shown) VH: QVQLVESGGGVVQPGRSLRLSCAASGFTFSNFGMHWVRQSPGRGLEWVAIIWYDGSHKFYADSVKGRFTISRDNSKNTLYLQMNSLRAEDTAVYYCAKSEQRTNDHYYKYGMDVWGQGTTVTVST VL: DIQMTQSPSTLSASVGDRVTITCRASQSISSWLAWYQQKPGKAPTLLIYKASSLESGVPSRFSGSGSGTEFTLTISSLQPDDFATYYCQQYTNYWTFGQGTKVEIK	binds
CL-464181 (antibody, V domains shown) VH: QVQLVESGGGAVQAGTSLRLSCAASGFSFSYNGMHWVRQGPGKGLEWVAIIWYDGGNKFYADSVKGRFTISRDNSKKMLYLQMNRLRAEDTAVYYCARAWNFADNKYSMDVWGQGTTVTVSA VL: DIQMTQSPSTLSASVGDRVTITCRASQSISCWLAWYQQKPGKAPQLLIYKASSLESGVPSRFSGSGSGTEFTLTISSLQPDDFATYYCQQYYIYWTFGQGTKVDIK	binds
CL-510092 (antibody, V domains shown) VH: QVQLVESGGGVVQPGTSLRLSCAASGFTFSNFGMYWVRQAPGKGLEWVALIWYDGSNKFYEDSVKGRFTISRDNSKNTLYLQMNSLRAEDTAVYYCAKDGGYSGPGKYGFFRHWGQGSLVTVSS VL: DIQLTQSPSTLSASVGDRVTITCRASQSISNWLAWYQQKPGKAPKLLIYKASSLESGVPSRFSGNGSGTEFTLTISSLQPDDFATYYCHQYNFYWTFGQGTKVEIK	binds
CL-510373 (antibody, V domains shown) VH: QVQLVESGGGVVQPGRSLKLSCAASGFTFSSYGMHWVRQAPGRGLEWVSIIWYDGSNKFYSDSVQGRFTISRDDSKNTLYLQMNSLRAEDTAMYYCAMVANYTISSGAFDIWGHGTMVTVSS VL: DIQMTQSPSTLSASVGDRVTITCRASQSISNWLAWYQQKSGKAPKLLIYKASSLESGVPSRFSGSGSGTEFTLTISSLQPDDFATYFCQQYKTYWTFGQGTKVEIK	binds
CL-509370 (antibody, V domains shown) VH: QVQLVESGGGVVQPGRSLRLSCAASGFTFSSYGMHWVRQAPGKGLEWVAVIWYDGSNKFYADSVKGHFTISRDNSKNTLYLQMNSLRAEDTAVYYCARDGRDLRGTGPYFDPWGQGTLVTVSS VL: EIVMTQSPATLSVSPGERAILSCRASQSVSSNLAWYQQKPGQAPRLLIYGASIRATGIPARFRGSGSGTEFTLTISILQSEDFAVYYCQQYNNWITFGQGTRLEIK	binds
CL-510433 (antibody, V domains shown) VH: QVQLVESGGGVVQPGRSLRLSCVASGFTFSSYGMHWVRQAPGKGLEWVAVIWYDGSNKYYADSVKGRFTVSRDNSKNTLYLQMNSLRAEDTAVYYCARVYYYGSGSYSPYYYALDVWGHGTTVTVSS VL: EIVMTQSPATLSVSPGERATLSCRASQSISSNLAWYQQKPGQAPRLLIYGASIRATGIPARFSGSGSGTEFTLSISILQSEDFAIYYCQQYNNWWTFGQGTKVEIK	binds
CL-509930 (antibody, V domains shown) VH: QVQLVESGGGVVQPGRSLRLSCAASGFTFSSYGMHWVRQAPGKGLEWVAIIWHDGSNKYYADSVKGRFTISRDNSKNTLYLQMNSLRAEDTAVYYCARDYSSFYFDYWGQGTLVTVSS VL: not shown	binds
CL-464277 (antibody, V domains shown) VH: QVQLVASGGGVVQPGRSLRLSCAVSGFTFRNYGMHWVRQDPGRGLEWVAIIWYDGSYKFYADSVKGRFTISRDNSKNTLYLQMNSLRAEDTAVYYCARSYGSLTGDQTKYGMDVWGQGTTVSVSS VL: not shown	binds
CL-509025 (antibody, V domains shown) VH: QVQLVESGGGVVQPGRSLRLSCVASGFTFSDYGMHWVRQAPGKGLEWVAVIWYDGTKEFFADSVKGRFTISRDNSKDTLYLQMNSLRAEDTGIYYCATYKWNSHLDYWGQGTLVTVSS VL: EIVLTQSPATLSLSPGERATLSCRASQTISSYLAWYQQKPGQAPRLLIYDASNRATGIPARFSGSGSGTDFTLTISSLEPEDFTVYYCQQRSNWPLTFGGGTKVGIK	binds
CL-509326 (antibody, V domains shown) VH: QVYLVESGEGVVQPGRSLRLSCAASGFTFSNYGMHWVRQAPGKGLEWVAVIWYNGNNKFYADSVKGRFTISRDNSKNTLFLQMNSLRAEDTAVYFCARSGYSRSSYFDYWGQGTLVTVSS VL: QSVLTQPPSVSGAPGQRVTISCTGSSSNIGAVYDVHWYQQLPGTAPKLLIYGNTNRPSGVPDRFSGSQSGTSASLAITGLQAEDEADYYCQSYDSSLSGSVFGGGTKLTVL	binds
CL-508731 (antibody, V domains shown) VH: QVQLVESGGGVVQPGRSLRLSCVASGFTFSNNGMHWVRQAPGKGLEWVAIIWHDGSNKFYAESVRGRFTISRDNSNNTLYLQMNSLRAEDTAVYYCARDRMFGSGSWNYFDPWGQGTLVTVSS VL: EIVLTQSPATLSLSPGERATLSCRASQSISTYLAWYQQKPGQAPRLLIYDASNRATGIPARFSGSGSGTDFTLTISSLEPEDFAVYYCQQRSYWWTFGQGTKVEIK	binds
CL-510082 (antibody, V domains shown) VH: QVQLVESGGGVVQPGKSLRLSCVASGFTFSNNGMHWIRQAPGKGLEWVAIIWYDGSNKFYADSVKGRFTISRDNSHNTLYLQMNSLRAEDTAVYYCARDRMFGSGTWNYFDPWGQGTLVTVSS VL: EIVLTQSPATLSLSPGERATLSCRASQSVSTYLAWYQQKPGQAPRLLIYDASNRATGIPARFSGSGSGTDFTLTISSLEPEDFAVYYCQQRSYWWTFGQGTKVEIK	binds
CL-509993 (antibody, V domains shown) VH: QVQLVESGGGVVQPGRSLRLSCVASGFTFSNNGMHWVRQAPGKGLEWVAIIWYDGSNKYYADSVKGRFTISRDNSNNTLYLQMNSLRAEDTAVYYCARDRMFGSGTWNYFDPWGQGTLVTVSS VL: EIVLTQSPATLSLSPGERATLSCRASQSVTTYLAWYQQKPGQAPRLLIYDASNRATGIPARFSGSGSGTDFTLTISSLEPEDFAVYYCQQRSNWWTFGQGTKVEIK	binds
CL-509177 (antibody, V domains shown) VH: QVQLVESGGGVVQPGRSLRLSCAASGFSFSSYGMHWVRQTPGKGLEWVAIIWYDGSNKFYADSVKGRFIISRDNSKNTLYLQMNSLRAEDTAVYYCARDGGYSTSAGDFDYWGQGTLVTVSS VL: EIVLTQSPGTLSLSPGERATLSCRASQSVSSSYLAWYQQKPGQAPRLLIYGASSRATGIPDRFSGRGSGTDFTLTISRLEPEDFAVYYCQQYVSSFTFGPGTKVDIN	binds
